The target in one data set is T1, glu-plasminogen (Homo sapiens, UniProt P00747).
T1 construct: Glu-plasminogen was purified from fresh frozen plasma; from tissue; host or cells: fresh frozen plasma (lysine-Sepharose, then benzamidine-Sepharose)
In words: Coupled enzyme assay: activation of glu-plasminogen (S2251), with and without fibrinogen. The format is biochemical. The note with it: for Km / kcat: GLU-plasminogen (S2251) activation. On the procedure: Glu-plasminogen was purified from fresh frozen plasma thawed at 37° C. using a modification of the method of Deutsch and Mertz (Deutsch et al., Science 170:1095–1096 (1970), herein incorporated by reference). Plasma was passed over a lysine-Sepharose column and the column washed with 0.3 M sodium phosphate, pH 7.4, 3 mM EDTA. Plasminogen was eluted from the column with 0.2 M epsilon-aminocaproic acid, 3 mM EDTA, pH 7.4 Contaminant plasmin was removed by passing the eluted column over benzamidine sepharose 2B. The plasminogen obtained was subsequently dialyzed before use against 10 mM sodium phosphate, pH 7.4, 0.15 M NaCl.
In the coupled enzyme assay, t-PA and S—NO-t-PA activities were assayed using the […] S2251. In selected experiments, fibrinogen stimulation of enzymatic activity was assessed at a fibrinogen concentrations of 1 mg./ml. Substrate hydrolysis was measured spectrophotometrically with a Dynatech MR 5000 Card Reader (Dynatech, Chantilly, Va.) in TBS, pH 7.4, at 25° C. Initial reaction velocity was determined from the slope of the plot of absorbance (at 405 nm)/time vs. time (Randy, M. Biochim. Biophysica Acta 704:461–469 (1982)) using glu-plasminogen concentrations ranging from 0.1–10 μM at an S2251 concentrations of 0.8 mM. Kinetic parameters were determined from initial rates by double reciprocal plot analysis.

In another data set the target is T2, PAI-1 (Homo sapiens, UniProt P05121).
T2 construct: gift of Dr. Douglas E. Vaughan
Nature of the data set: Inhibition of t-PA and S—NO-t-PA enzymatic activity by PAI-1 (S2288). The format is biochemical. The settings on record: direct chromogenic assay with S2288; n=3. As to the method: (§1) The amidolytic activities of t-PA and its S-nitrosylated derivative were measured using the relatively specific chromogenic substrate, S2288. Substrate hydrolysis was measured spectrophotometrically at 405 nm with a Gilford Response UV/Vis Spectrophotometer (CIBA-Corning, Oberlin, Ohio). Activity was measured at 25° C. in TBS using substrate concentrations varying from 0.1–2.0 mM and t-PA at a concentration of 100 nM. Kinetic parameters were determined from initial rates by double reciprocal plot analysis. The assessment of inhibition of t-PA and S—NO-t-PA enzymatic activity by PAI-1 was made at an enzyme concentration of 10 nM and a molar ratio of t-PA to active PAI-1 of 1.0. The degree of inhibition was determined relative to the initial rates in the absence of the inhibitor.

The subject of the next data set is gel-filtered platelets. Nature of the data set: Platelet aggregation (nephelometric aggregometry). Format: cell-based, human. The settings on record: for % Normalized Extent Aggregation: Thrombin (0.024 U/ml), (150 μM) as printed, mean ±S.D.
Data set [1] can be described thus: Amidolytic activity against chromogenic substrate S2288. The format is biochemical. The note with it: S2288 hydrolysis; for Km: 25° C., TBS. As to the method:
as §1

Experimental findings from patent publication US7033999B2, “Nitrosated and nitrosylated heme proteins” (Brigham and Women's Hospital, priority 1991, dated 2006) are described below.

T1 sequence (P00747 20-810 limits assumed): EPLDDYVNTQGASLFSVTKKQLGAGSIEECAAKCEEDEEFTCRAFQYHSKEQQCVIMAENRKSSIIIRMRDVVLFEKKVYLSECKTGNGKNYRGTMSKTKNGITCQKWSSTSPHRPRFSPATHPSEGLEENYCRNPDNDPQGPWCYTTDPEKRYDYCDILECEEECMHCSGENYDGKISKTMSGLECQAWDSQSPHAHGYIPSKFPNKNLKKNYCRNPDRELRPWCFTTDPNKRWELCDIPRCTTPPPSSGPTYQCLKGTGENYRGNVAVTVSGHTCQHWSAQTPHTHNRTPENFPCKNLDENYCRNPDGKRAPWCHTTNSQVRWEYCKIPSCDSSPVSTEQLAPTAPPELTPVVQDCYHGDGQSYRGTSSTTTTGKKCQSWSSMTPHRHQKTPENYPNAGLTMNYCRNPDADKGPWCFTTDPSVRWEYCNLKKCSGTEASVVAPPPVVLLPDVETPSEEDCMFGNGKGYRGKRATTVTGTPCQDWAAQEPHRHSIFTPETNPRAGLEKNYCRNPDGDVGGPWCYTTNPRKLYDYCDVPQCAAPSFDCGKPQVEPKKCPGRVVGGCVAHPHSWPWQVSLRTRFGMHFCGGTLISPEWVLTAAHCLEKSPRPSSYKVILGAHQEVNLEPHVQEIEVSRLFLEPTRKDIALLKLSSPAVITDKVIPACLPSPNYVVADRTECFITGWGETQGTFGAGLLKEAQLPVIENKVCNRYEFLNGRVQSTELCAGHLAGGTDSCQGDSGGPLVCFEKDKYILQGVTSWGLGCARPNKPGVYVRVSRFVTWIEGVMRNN
T2 sequence (P05121 24-402, species assumed): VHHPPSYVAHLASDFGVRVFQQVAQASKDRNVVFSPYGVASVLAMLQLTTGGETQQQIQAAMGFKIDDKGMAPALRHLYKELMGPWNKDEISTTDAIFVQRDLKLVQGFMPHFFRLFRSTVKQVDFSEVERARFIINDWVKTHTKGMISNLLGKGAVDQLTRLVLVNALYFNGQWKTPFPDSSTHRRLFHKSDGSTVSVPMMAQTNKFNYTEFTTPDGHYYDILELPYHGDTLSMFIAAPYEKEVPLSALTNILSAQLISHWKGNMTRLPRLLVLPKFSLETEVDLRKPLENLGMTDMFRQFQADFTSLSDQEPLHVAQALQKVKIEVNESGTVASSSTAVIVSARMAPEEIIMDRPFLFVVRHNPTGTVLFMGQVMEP

On to “S—NO-t-PA: derived from the nitrosylation of tissue-type plasminogen activator (t-PA)”, for which the “fibrinogen stimulation greater than t-PA” value with glu-plasminogen (0.1 μM plasminogen, fibrinogen 1 mg./ml) turned out to be 3.5 fold. Besides, in the data set with glu-plasminogen, the Michaelis-Menten constant (Km) amounted to 3.8 µM and the kcat is 0.262 s⁻¹. Also, the “degree of fibrinogen stimulation compared with wild type t-PA” value with glu-plasminogen (physiologic (1 μM) plasminogen) is given as “equivalent”. For the same substance, in the data set with glu-plasminogen (plasminogen activation), the “catalytic efficiency greater than that of native t-PA” value is recorded as 23%. Besides, the “inhibition of hydrolytic activity by PAI-1” value with PAI-1 was “equally effective”. The “concentrations at which inhibition of platelet aggregation was demonstrable” value with gel-filtered platelets (ADP (5 μM) or thrombin (0.024 U/ml)) was in the range of 15 to 150 nM. Further, the “% Normalized Extent Aggregation” value in the data set on gel-filtered platelets turned out to be 0.73 ± 0.28 %. In data set [1], the kcat turned out to be 0.52 s⁻¹ and the Michaelis-Menten constant (Km) amounted to 295 µM.

For “t-PA: tissue-type plasminogen activator, provided by Genentech”, in the data set with glu-plasminogen, the Km is 3.5 µM and the kcat was 0.200 s⁻¹. Besides, in the data set with PAI-1, the “inhibition of hydrolytic activity by PAI-1” value is “equally effective”. Moreover, in the data set on gel-filtered platelets, the “% Normalized Extent Aggregation” value is given as 0.90 ± 0.15%. In addition, in data set [1], the kcat was determined as 0.52 s⁻¹ and the Km stood at 280 µM.
